Data from patent US20240269235A1 (Gilead, published 2024).

Experiments:
[1] = biological target: T1, IL-2Rαβγ on KHYG-1 cells (human NK leukemia cell line that expresses IL-2Rα, β, and γ) (human, UniProt P01589 22-272; P14784 27-551; P31785 23-369); assay: cell-based or functional assay
T1 sequence (looked up) 1: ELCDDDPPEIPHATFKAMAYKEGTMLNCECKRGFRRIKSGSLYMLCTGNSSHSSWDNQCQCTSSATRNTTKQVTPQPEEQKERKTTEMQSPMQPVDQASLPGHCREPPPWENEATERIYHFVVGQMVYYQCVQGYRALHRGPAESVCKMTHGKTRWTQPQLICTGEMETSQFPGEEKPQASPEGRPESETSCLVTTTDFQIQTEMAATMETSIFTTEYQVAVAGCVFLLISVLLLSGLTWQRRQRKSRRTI
T1 sequence (looked up) 2: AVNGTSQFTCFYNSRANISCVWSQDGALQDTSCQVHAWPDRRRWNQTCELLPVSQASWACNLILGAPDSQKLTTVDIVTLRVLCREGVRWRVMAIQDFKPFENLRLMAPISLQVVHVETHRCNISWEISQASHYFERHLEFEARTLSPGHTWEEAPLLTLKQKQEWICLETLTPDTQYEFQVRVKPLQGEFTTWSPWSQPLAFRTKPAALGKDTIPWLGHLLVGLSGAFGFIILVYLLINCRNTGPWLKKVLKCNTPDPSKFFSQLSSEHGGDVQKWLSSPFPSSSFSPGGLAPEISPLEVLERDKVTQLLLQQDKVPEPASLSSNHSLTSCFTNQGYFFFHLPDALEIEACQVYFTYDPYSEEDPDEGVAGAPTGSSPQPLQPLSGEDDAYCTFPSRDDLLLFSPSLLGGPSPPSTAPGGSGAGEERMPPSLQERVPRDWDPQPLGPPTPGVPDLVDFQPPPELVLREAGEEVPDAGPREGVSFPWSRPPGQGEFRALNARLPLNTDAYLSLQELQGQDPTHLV
T1 sequence (looked up) 3: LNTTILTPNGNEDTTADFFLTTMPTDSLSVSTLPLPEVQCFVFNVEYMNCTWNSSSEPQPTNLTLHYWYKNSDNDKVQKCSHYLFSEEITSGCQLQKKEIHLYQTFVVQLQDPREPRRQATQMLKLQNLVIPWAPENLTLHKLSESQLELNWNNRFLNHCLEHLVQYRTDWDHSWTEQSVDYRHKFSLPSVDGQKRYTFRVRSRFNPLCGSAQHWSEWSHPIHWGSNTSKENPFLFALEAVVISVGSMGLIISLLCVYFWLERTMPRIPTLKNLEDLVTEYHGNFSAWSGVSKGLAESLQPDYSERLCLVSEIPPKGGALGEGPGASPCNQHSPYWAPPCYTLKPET

[2] = biological target: T2, IL-2Rα (recombinant IL-2 receptor α, R&D Systems Cat #: 223-2A/CF), biotinylated (human, UniProt P01589 22-213, limits assumed, biotinylated using sulfo-NHS-LC-LC-Biotin); assay: SPR (Biacore), C1 or CM5 chip, biotinylated receptor on neutravidin
T2 construct: Bought reagent; also used here as the IL-2Rα partner of the in-silico analysis of PDB 2B5I (another construct); also called IL-2RA; CD25
T2 sequence (looked up): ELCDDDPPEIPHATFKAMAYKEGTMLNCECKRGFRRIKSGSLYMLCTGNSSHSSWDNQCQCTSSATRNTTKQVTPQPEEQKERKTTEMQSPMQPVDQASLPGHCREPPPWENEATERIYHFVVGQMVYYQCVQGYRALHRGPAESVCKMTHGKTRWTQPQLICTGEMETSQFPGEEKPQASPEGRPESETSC

[3] = biological target: T3, human IL-2Rα on Treg cells (CD3+, CD4+, CD25hi, FoxP3+) of human PBMC (human, UniProt P01589 22-272); assay: cell-based or functional assay
T3 sequence (looked up): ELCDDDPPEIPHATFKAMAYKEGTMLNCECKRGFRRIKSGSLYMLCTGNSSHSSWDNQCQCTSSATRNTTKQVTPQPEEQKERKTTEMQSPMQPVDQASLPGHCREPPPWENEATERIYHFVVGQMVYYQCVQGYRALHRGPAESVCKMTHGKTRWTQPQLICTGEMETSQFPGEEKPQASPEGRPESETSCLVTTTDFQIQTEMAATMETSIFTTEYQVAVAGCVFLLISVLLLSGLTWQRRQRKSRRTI

B1: Fc-IL-2 heterodimer 117.46 (hIL-2v_Δ1-5_C125S), native IL-2Rα binding interface (Fc fusion)
chain 1: ESKYGPPCPPCPAPEAAGGPSVFLFPPKPKDTLMISRTPEVTCVVVDVSQEDPEVQFNWYVDGVEVHNAKTKPREEQFNSTYRVVSVLTVLHQDWLNGKEYKCKVSNKGLPSSIEKTISKAKGQPREPQVYTLPPSQEEMTKNQVSLWCLVKGFYPSDIAVEWESNGQPENNYKTTPPVLDSDGSFFLYSRLTVDKSRWQEGNVFSCSVMHEALHNHYTQKSLSLSLGGGGGSGGGGSGGGGSGGGGSSTKKTQLQLEHLLLDLQMILNGINNYKNPKLTRMLTFKFYMPKKATELKHLQCLEEELKPLEEVLNLAQSKNFHLRPRDLISNINVIVLELKGSETTFMCEYADETATIVEFLNRWITFSQSIISTLT
chain 2: ESKYGPPCPPCPAPEAAGGPSVFLFPPKPKDTLMISRTPEVTCVVVDVSQEDPEVQFNWYVDGVEVHNAKTKPREEQFNSTYRVVSVLTVLHQDWLNGKEYKCKVSNKGLPSSIEKTISKAKGQPREPQVYTLPPSQEEMTKNQVSLSCAVKGFYPSDIAVEWESNGQPENNYKTTPPVLDSDGSFFLVSRLTVDKSRWQEGNVFSCSVMHEALHNRFTQKSLSLSLGK
notes: hIgG4 knob-in-hole Fc heterodimer
For B1, the “Proliferation of KHYG-1 NK cells, EC50” value [1] was 0.016 nM, the Kd [2] was 15 nM and the “Treg EC50, STAT5 activation (PBMC STAT5 assay)” value [3] was less than 0.001 nM.
